Experimental data from patent publication US10017546B2 (KOREA ADVANCED INSTITUTE OF SCIENCE AND TECHNOLOGY, priority 2015, dated 2018).
Where two headings read alike, the source gives them in different places.

Columns and labels:
biotin-GFP [1] = biological target: T1, biotin-GFP (Aequorea victoria, UniProt P42212, A206V/E111V/F223Y/F64L/F99S/I128T/I167V/I171V/K158E/K166T/K26E/L221H/M153T/N105K/N149D/N164E/Q80R/S205T/S30R/S65T/T225N/V163A/Y145F/Y39I); conditions: for percentage of dissociated biotin conjugate after 10 h incubation with excess biotin / Dissociation rate: Biotin-GFP; for percentage of dissociated biotin conjugate after 10 h incubation with excess biotin: 23° C.; for Dissociation rate: excess biotin; for dissociation of biotin-GFP from mRA mutants (in words): mutants at E115, Q46, S23, biotin addition, 45° C. for 30 min
Description: After incubation at the indicated temperature (23° C., 37° C., or 45° C.) for varying time points (between 0 to 10 h), protein-conjugate mixtures were loaded onto a 15% native polyacrylamide gel. […] Data as ln(fraction bound) versus time and fitting the data to a straight line by linear regression.

biotin-protein G = experiment: Gel-based off-rate measurement against biotin-protein G; type: binding; conditions: 37° C., excess biotin
biotin-AP = experiment: Gel-based off-rate measurement against biotin-AP peptide; type: binding; conditions: 37° C., excess biotin
biotin-DNA = experiment: Gel-based off-rate measurement against biotin-DNA-fluorescein; type: binding; conditions: for percentage of dissociated biotin conjugate after 10 h incubation with excess biotin: 23° C.
biotin-GFP [2] = biological target: T1, biotin-GFP; conditions: 15% native-PAGE
Excerpt: To monomerize rhizavidin, the present inventors introduced various numbers (one, six, and ten) of charged and hydrophilic amino acids, which have long side chains, at the dimeric interface (FIG. 1(a) and FIG. 4).

[3] = Stability / aggregation of monomerized proteins in buffered solutions; type: physicochemical; conditions: up to 1 mg/ml where stated
[4] = immobilized biotin or biotin-GFP, avidin proteins 5 μM
Description: Surface Plasmon Resonance (SPR) Analysis
SPR tests were performed in a Biacore 3000 instrument using dextran CM5 gold chips (GE Healthcare) and a PBS buffer as a running solution.

HeLa cells = experiment: Clustering and internalization of biotinylated cell-surface proteins; type: cell-based; conditions: Cy5-labeled avidin proteins, 37° C.
Description: Following biotinylation, the cells were washed twice with cold PBS-CM, treated with 100 mM glycine in PBS-CM for blocking, and washed again twice with cold PBS. […] Unbound avidin proteins were removed, and media was replaced with pre-warmed DMEM (37° C.). Cells were incubated for 5, 10, or 30 m at 37° C. Cells were washed, and fixed with 4% formaldehyde in PBS for confocal imaging (ZEISS, LSM510 META). To visualize endosome or lysozome-specific proteins, cells were fixed, permeabilized, and incubated with a primary antibody: anti-Rab11 (a GTPase of recycling endosome, Abcham) or anti-LAM P1 (Lysosomal-associated membrane protein 1, Abcham). Afterward, cells were incubated with a fluorescent secondary antibody (goat anti-rabbit 555, Abcham), and images were acquired with a confocal microscopy (ZEISS, LSM510 META).

Molecule | percentage of dissociated biotin conjugate after 10 h incubation with excess biotin (biotin-GFP [1]) | Dissociation rate (biotin-GFP [1]; 37° C.) | Dissociation rate (biotin-GFP [1]; 45° C.) | Dissociation rate (biotin-protein G) | Dissociation rate (biotin-AP) | percentage of dissociated biotin conjugate after 10 h incubation with excess biotin (biotin-DNA) | complexes formed with biotin-GFP (biotin-GFP [2]) | biotin-GFP dissociated after biotin addition (biotin-GFP [1]; excess free biotin, 37° C. for 30 min, native-PAGE) | stability / aggregation in buffered solutions [3] | dissociation of biotin-GFP from mRA mutants (in words) (biotin-GFP [1]) | percentage of dissociated biotin conjugate after 10 h incubation with excess biotin (biotin-GFP [1]; listed as MA) | percentage of dissociated biotin conjugate after 10 h incubation with excess biotin (biotin-DNA; listed as monodin) | Dissociation rate (biotin-DNA; 37° C., excess biotin) | dissociation from surface-bound biotin conjugates by SPR [4] | incubation time after which avidin protein was internalized (HeLa cells)
Rhizavidin (RA): natural dimeric avidin protein from Rhizobium etli; core rhizavidin SEQ ID NO: 1 (protein, amino acid sequence of truncated Rhizavidin) FDASNFKDFSSIASASSSWQNQSGSTMIIQVDSFGNVSGQYVNRAQGTGCQNSPYPLTGRVNGTFIAFSVGWNNSTENCNSATGWTGYAQVNGNNTEIVTSWNLAYEGGSGPAIEQGQDTFQYVPTTE | 18 ± 3.0% for 10 h* | 5.0 ± 0.1 × 10^−5 s^−1 | 6.0 ± 0.6 × 10^−5 s^−1 | 3.2 ± 0.8 × 10^−5 s^−1 | 4.9 ± 0.7 × 10^−5 s^−1 | 48 ± 6.1% for 10 h* | two separated complexes |  |  |  |  |  |  |  | 
mRA: monomeric rhizavidin with six interfacial mutations (SEQ ID NO: 2) (protein, amino acid sequence of mRA) FDASNFKDFSSIASASSSWQNQSGSTMIIQVDSFGNVSGQYVNRAQGTGCQNSPYPLTGRVNGTFIDFSVKWNNSTENCNSNTQWTGYAQVNGNNTEIVTRWNLKYEGGSGPAIEQGQDTFQYVPTTE |  |  |  |  |  |  |  | Over 40% | stable without any aggregation |  |  |  |  |  | 
mRAWW: mRA with two tryptophan mutations (E115W and S23W) (protein) FDASNFKDFSSIASASSSWQNQWGSTMIIQVDSFGNVSGQYVNRAQGTGCQNSPYPLTGRVNGTFIDFSVKWNNSTENCNSNTQWTGYAQVNGNNTEIVTRWNLKYEGGSGPAIWQGQDTFQYVPTTE |  |  |  |  |  |  |  |  | highly prone to aggregation | the least dissociation of biotin-GFP |  |  |  |  | 
Monodin (MA): monomeric avidin-like protein of SEQ ID NO: 3; mRA further carrying S23H, Q46E and E115W (protein, amino acid sequence of MA, mRA further carrying S23H, Q46E and E115W) FDASNFKDFSSIASASSSWQNQHGSTMIIQVDSFGNVSGQYVNRAEGTGCQNSPYPLTGRVNGTFIDFSVKWNNSTENCNSNTQWTGYAQVNGNNTEIVTRWNLKYEGGSGPAIWQGQDTFQYVPTTE | 6.7 ± 1.1% for 10 h* | 2.3±0.1×10^−5 s^−1 | 6.4±0.2×10^−5 s^−1 | 4.6 ± 1.5 × 10^−5 s^−1 | 5.1 ± 0.7 × 10^−5 s^−1 | 22 ± 6.0% for 10 h* |  |  |  | highly slowed off-rate | less than 7% | 22% | 2.7±0.3×10^−5 s^−1 | not observed | 30 min
